# From the RNAGym collection of RNA variant scans (doi:10.1073/pnas.2313332121)
# Variants at the floor of the assay were thinned out.
# B1: TPR 5TU (parent)
# chain: GGAUCUUCUCGAUCUAACAAAAAAGACAAAUCUGCCACAAAGCUUGAGAGCAUCUUCGGAUGCAGAGGCGGCAGCCUUCGGUGGCGCGAUAGCGCCAACGUUCUCAACUAUGACACGCAAAACGCGUGCUCCGUUGAAUGGAGUUUAUCAUG
# Variants of: B1
# Assay: polymerase ribozyme fitness, log enrichment relative to wild type (log ratio); higher = more active; in vitro selection for triplet polymerase activity
# How it was run: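 For each subunit of a heterodimeric triplet polymerase ribozyme, a mutant library was built by PCR and transcribed, then taken through a single in vitro selection round in triplicate. Selection involved annealing to a biotinylated primer, the partner subunit and triplets, incubation frozen at −7 °C, gel excision of extended constructs, capture on streptavidin beads and RT-PCR. Genotypes were retained after Illumina sequencing of inputs and outputs only with ≥10 input reads and ≥1 read in each output. Fitness is defined as the logarithm of a genotype's enrichment relative to wild-type enrichment, using inverse-variance-weighted averages across replicates, with the logarithm taken to base 2.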
row,Variant,polymerase ribozyme fitness (log ratio)
1,C18U A20G C87G U102G,≤ -4.2
2,A17G U31C C35G G86A A121U,-4.19
3,C18U A20G C76A U77A G92U U101A U134G,≤ -4.2
4,A17U A29U C93A G141U,≤ -4.2
5,C18A A39C G58C G84A U145G,-3.36
6,A17U C51G G83A U134C,-3.2
7,C18U G25C C43G C99A,≤ -4.2
8,A17U C51U U55A U78A G81C C123G,≤ -4.2
9,C18U C108U,-3.57
10,A17G U31A U90C C93U C99G C125A A137C G143C,≤ -4.2
11,A17U G48A C51G U55G C96G C105U C118U G136U G141U,≤ -4.2
12,C18G G84U G117U A121G,-2.06
13,A17U A22U U44A G83C C131U,≤ -4.2
14,A17U G25C A29U G48C U53A G70U C93G C129A C131A A150C,≤ -4.2
15,A17U U33G A52C,≤ -4.2
16,C18G C36A C96U A138U,-4.03
17,C18U A28C C87G G124U U139G U146G,≤ -4.2
18,C18U A26G G58A C87A A97U G133A,≤ -4.2
19,C18A C85A G112C C116U,≤ -4.2
20,A17G U109G G140U,-3.77
21,C18G C63G G68U G71A U78G C85G G100A G141U,≤ -4.2
22,A17U C85U U104G,-1.01
23,A17G G84A,-0.469
24,A17U A21U U55A A91C C95G A98U C108G,≤ -4.2

row,Variant,polymerase ribozyme fitness (log ratio)
1,A17U U33A U45A C57G G70C C87A A98U,≤ -4.2
2,A17G C132G,-3.28
3,A17G G67C G86A,≤ -4.2
4,C18U C85A U144G,0.299
5,A17U C32G G48A C79G G84U G86U C108U,≤ -4.2
6,A17U A29C A41G G59C C85G,≤ -4.2
7,A17U C87U U90C C99G,-3.69
8,A17U A29U G74C G124U,≤ -4.2
9,C18U C87U C99U A119G C125G U135G,≤ -4.2
10,C18U A19G,-1.03
11,A17U C38A U44A G70C U82C C95U,≤ -4.2
12,A17U C93U C114A C116G,≤ -4.2
13,C18G C51U C87G C99A U101C C118U G136A,≤ -4.2
14,C18G G50A C76U A115G A119G,-3.18
15,C18G C96U,-1.12
16,C18G A26U C35U U78A C99G U135C A147C,≤ -4.2
17,A17U A19U A22G G88U A110G,≤ -4.2
18,C18U A20C G34U C76A C79A G88A,≤ -4.2
19,A17U A26C C38U G83A G124U,-3.97
20,A17U A24U G83C,0.0208
21,C18G A21U A29C A37U C57U C95U U127G U148G,-3.75
22,C18G U53A U139C,≤ -4.2
23,C18G A21C A49C C93A,≤ -4.2
24,A17U A52U A142C,-3.3

row,Variant,polymerase ribozyme fitness (log ratio)
1,A17U U55A G84C C95G U148A,-3.23
2,A17U C51U G83C A91U U139A G140A G141A U148C,≤ -4.2
3,A17U C51A G94U A138G A150U,≤ -4.2
4,C18U C76A U127G A137C,≤ -4.2
5,C18U C57A A115C G143U U148A,≤ -4.2
6,C18G G25C U33C C108G,-3.95
7,A17U A21G C27G A28U C85A C87U C95G,≤ -4.2
8,A17G U45G G80U,≤ -4.2
9,A17U A21C U44A A49C C72A U82A U134A,≤ -4.2
10,A17U G81C U102G U130G G141A,≤ -4.2
11,A17U U53G C57U G59C G117U,-0.451
12,C18G C35A C76U G83C G84U G88A G141U,≤ -4.2
13,A17U A40G G94C C132U,-4.03
14,C18A C69G C96U C103A,-2.88
15,C18G G92C C129U A150U,-3.54
16,A17U A19U A37U U53A G58A C95A A121G A122C,-3.75
17,A17G G46A C69A A121G,-3.45
18,C18A G86U C103U U145A,-2.81
19,C18U C32U A37C C54A C69A G70U A97U A138C C149A,≤ -4.2
20,A17G G59U A97C C99G,-2.61
21,C18G U55A,-0.923
22,C18G U55A A98G A106G G112U A120U,-3.87
23,A17U A40G C54U G83A A91C G126C,≤ -4.2
24,A17U C96A,-0.735

row,Variant,polymerase ribozyme fitness (log ratio)
1,C18G A41U A47C A49G G86A U104G,-3.44
2,A17U A21U G67C C76U A91U C118G,≤ -4.2
3,A17U A20G C63A G92A A150U,-2.12
4,A17G U61A G71A G143A,≤ -4.2
5,A17U C54G C96U,-2.08
6,C18U A21C G42C C93U,≤ -4.2
7,C18U C87U G94C C123A G141A,≤ -4.2
8,C18G C116U,-0.663
9,A17U C105A,-1.28
10,A17U,-0.256
11,A17U A40U C123U,-0.36
12,C18G C57G G80U C87A U127C G128C,≤ -4.2
13,C18G G84C G126U,-2.27
14,A17G U53A C99G U130C,≤ -4.2
15,A17G G84A A147C,-0.273
16,A17U C69U G84C A97G,≤ -4.2
17,A17U C85A,-1.17
18,C18G A137G U145G,-2.16
19,C18U G25C A26C C32G G50U G58C C75U A91G C114A,≤ -4.2
20,C18A A19C A40C C85U,0.244
21,C18G A19U G62C C85U C116A,-1.81
22,A17U C93A,-2.74
23,C18U A23U A26U A30U C87U C96G C108U G136A,≤ -4.2
24,C18U A121U,-1.1

row,Variant,polymerase ribozyme fitness (log ratio)
1,A17U C87G,-3.75
2,A17U C79G C87U U144G,≤ -4.2
3,C18G G59U G84U,-2.51
4,C18G C36A C95A C96A,≤ -4.2
5,A17G G50U C95U G124C G141A,-0.476
6,A17U A47G C57U G74C U77C U82A G83A U102G A150G,≤ -4.2
7,A17U G80C C93A U101G,≤ -4.2
8,A17U A37C C93G C96A,≤ -4.2
9,C18U A52G G83C U146G,-2.39
10,C18G A19G A20U C57U G68C G141A,≤ -4.2
11,A17U A30U U55C C116U,-4.01
12,C18U C76A C95U C99A U101G A107U C149G,≤ -4.2
13,C18U A28U C38A A47C C85A U145C,≤ -4.2
14,A17U A24G A26G A47G G50A G65C U111C A142U,≤ -4.2
15,C18U A37U G83A C87U U90G A98C C116A G133U A137C,≤ -4.2
16,C18A U56A G92U C105U C114A U144G,-3.79
17,C18U A19G G94A,-2.01
18,C18U A30C C32U A39U A49C U53G C93G C96U U127G U139G G140U A147C U151A,≤ -4.2
19,C18A A21C A37C G81A C87G,≤ -4.2
20,A17U A19U A22U U61A G83A G84A G100U,≤ -4.2
21,A17U C72U C99U,-1.38
22,C18G A52C C69G C75G G94A C95U A113U,≤ -4.2
23,C18G A52U U82A,-3.02
24,C18U A40G,-2.32

row,Variant,polymerase ribozyme fitness (log ratio)
1,C18G A49C C57G C87A G128U U146G,≤ -4.2
2,C18G G86A C87A A91C A120C,≤ -4.2
3,C18U A47C C79G G88A A91C A121U U148G,≤ -4.2
4,C18U A21U G42A G58C C95U C116U U145C,≤ -4.2
5,C18G G50U G88A,-4.08
6,C18G C35A G46C G58C C95G A113U,≤ -4.2
7,A17U C54A A89C C99A G136A,-4.03
8,A17G U145C,0.174
9,A17U A22U A52G G92C A115G,-2.67
10,A17U C93G U102A A107C G143A,≤ -4.2
11,A17U A23U C36G C57A G70U U78C C85U C103G A147C C149U,≤ -4.2
12,A17U G46U G84A C105U,-0.266
13,C18G G50A C96G A121C,-2.18
14,C18U A40G C57G C95U,-3.91
15,A17G U134G,-1.76
16,A17U G94C C95U C105U,-0.248
17,C18G U31G A52G G80C U101C U127G,≤ -4.2
18,C18U C54G G59A C93A G136U,≤ -4.2
19,A17U G50A C87G G141A,≤ -4.2
20,A17G U45A G50A G62U C79G G86U C103A,≤ -4.2
21,C18A A20G G46C U56C G94C C105G A122U,-0.89
22,A17U C116U,-0.46
23,A17U A113U,-1.99
24,C18A A89G U90G A97G,≤ -4.2

row,Variant,polymerase ribozyme fitness (log ratio)
1,C18A C27A A40U C87U C118U,-4.17
2,C18A G58A G86U A119U,-2.06
3,A17G G71A,-3.06
4,A17U A20G G42C C85U G128C,≤ -4.2
5,C18G A21C A52G G84U G133C U134C,-4.07
6,A17G U101A C105G,-3.18
7,A17U C35U A97U G141A,-1.34
8,C18G A52G C87U,-1.15
9,C18G A23C G34A A66U G84U U135A,≤ -4.2
10,A17U G94A,-1.24
11,A17U A19U C63U G68C C95U C96A G140A,≤ -4.2
12,A17U A20C A26C C93U C131U,-2.3
13,A17U C57A G83C C99G,≤ -4.2
14,C18G A28U A29U A66G G67C C96U A106C,≤ -4.2
15,C18G G80U C116U,-1.62
16,A17G U90C C93U C105G A122G G143C,≤ -4.2
17,C18G A29U U31G U44C A49U C76U A98G C118A,≤ -4.2
18,A17U A37U G59C G81A A97G C116G,-1.87
19,C18A U55G C85A C118U,-2.09
20,C18U A19U A24G G74U C79U,≤ -4.2
21,C18U C35U G58U G80C C85U,≤ -4.2
22,C18G A28U A66U G94U C95A,≤ -4.2
23,A17U C96G A142U U146A,-2.11
